From US20230348616A1 (MIE UNIVERSITY, published 2023)

B1: NYA-2044 (scFv)
scFv: GEVQLVESGGGLVQPGGSLRLSCAASGFSIRSYDIHWVRLAPGKGLEWVATISYDGSQKYYADSVKGRFTISRDESKNTLYLQMNSLRAEDTAVYHCARGSSGHYEAFDIWGQGTLVTVSSGGGGSGGGGSGGGGSQSVLTQPPSVSAAPGQKVTISCSGSSSNIGNWYVSWYQQLPGTAPKLLIYDNNKRPSGIPDRFSGSKSGTSATLGITGLQTGDEADYYCGTWDSSLSAPWVFGGGTKVTVLGAAAGAGGDYKDDDDKGAAAHHHHHH
notes: also called NYA-2044 tag adduct
B2: NYA-2045 (scFv)
scFv: GEVQLVESGGGLVQPGGSLRLSCAASGFSIRSYDIHWVRLAPGKGLEWVATISYDGSQKYYADSVKGRFTISRDESKNTLYLQMNSLRAEDTAVYHCARGSSGHYEAFDIWGQGTLVTVSSGGGGSGGGGSGGGGSQSVLTQPPSASGTPGQRVTISCSGSSSNIGNWYVSWYQQLPGTAPKLLIYDNNKRPSGVPDRFSGSKSGTSASLAISGLQSEDEADYYCGTWDSSLSAPWVFGGGTKLTVLGAAAGAGGDYKDDDDKGAAAHHHHHH
notes: also called NYA-2045 tag adduct
B3: NYA-2047 (scFv)
scFv: GQVQLVESGGGVVQPGRSLRLSCAASGFSIRSYDMHWVRQAPGKGLEWVATISYDGSQKYYADSVKGRFTISRDNSKNTLYLQMSSLRAEDTAVYHCARGSSGHYEAFDIWGQGTLVTVSSGGGGSGGGGSGGGGSQSVLTQPPSVSAAPGQKVTISCSGSSSNIGNWYVSWYQQLPGTAPKLLIYDNNKRPSGIPDRFSGSKSGTSATLGITGLQTGDEADYYCGTWDSSLSAPWVFGGGTKVTVLGAAAGAGGDYKDDDDKGAAAHHHHHH
B4: NYC-0004 (scFv, not shown: small tags and cut ends)
scFv: EVQLLESGGGLVQPGGSLRLSCAASGFTFSTYQMSWVRQAPGKGLEWVSGIVSSGGSTAYADSVKGRFTISRDNSKNTLYLQMNSLRAEDTAVYYCAGELLPYYGMDVWGQGTTVTVSSGGGGSGGGGSGGGGSQSELTQPRSVSGSPGQSVTISCTGTERDVGGYNYVSWYQQHPGKAPKLIIHDVIERSSGVPDRFSGSKSGNTASLTISGLQAEDEADYYCWSFAGGYYVFGTGTDVTVL
notes: also called T1 scFv; NYC-0004 tag adduct
B5: NYA-0001 (scFv)
scFv: GEVQLVESGGGVVQPGRSLTPSCSASGFSIRSYDIHWVRQAPGKGLEWVATISYDGSQKYFADSVKGRFTIFRDESENMVYLQMSGLRVEDTAVYHCARGSSGHYEAFDIWGQGTMVTVSSGGGGSGGGGSGGGGSQSVLTQPPSVSAAPGQKVTISCSGSSSNIGNNYVSWYQQLPGTAPKLLIYDNNKRPSGIPDRFSGSKSGTSATLGITGLQTGDEADYYCGTWDSSLSAPWVFGGGTKVTVLGAAAGAGGDYKDDDDKGAAAHHHHHH
notes: also called NYA-0001 tag adduct; NY-R119 expressed in a cultured mammalian cell
B6: NYA-1154 (scFv)
scFv: GEVQLVESGGGVVQPGRSLTPSCSASGFSIRSYDMHWVRQAPGKGLEWVATISYDGSQKYFADSVKGRFTIFRDESENMVYLQMSGLRVEDTAVYHCARGSSNHYEAFDIWGQGTMVTVSSGGGGSGGGGSGGGGSQSVLTQPPSVSAAPGQKVTISCSGSSSNIGNNYVSWYQRLPGTAPKLLIYDNNKRPSGIPDRFSGSKSGTSATLGITGLQTGDEADYYCGAWDSSLSAPWVFGGGTKVTVLGAAAGAGGDYKDDDDKGAAAHHHHHH
B7: NYA-2143 (scFv)
scFv: GEVQLVESGGGVVQPGRSLTPSCSASGFSIRSYDIHWVRLAPGKGLEWVATISYDGSQKYFADSVKGRFTIFRDESENMVYLQMSGLRVEDTAVYHCARGSSGHYEAFDIWGQGTMVTVSSGGGGSGGGGSGGGGSQSVLTQPPSVSAAPGQKVTISCSGSSSNIGNWYVSWYQRLPGTAPKLLIYDNNKRPSGIPDRFSGSKSGTSATLGITGLQTGDEADYYCGTWDSSLSAPWVFGGGTKVTVLGAAAGAGGDYKDDDDKGAAAHHHHHH
B8: NYA-2023 (scFv)
scFv: GEVQLVESGGGVVQPGRSLTPSCSASGFSIRSYDIHWVRQAPGKGLEWVATISYDGSQKYFADSVKGRFTIFRDESENMVYLQMSGLRVEDTAVYHCARGSSGHYEAFDIWGQGTMVTVSSGGGGSGGGGSGGGGSQSVLTQPPSVSAAPGQKVTISCSGSSSNIGNWYVSWYQQLPGTAPKLLIYDNNKRPSGIPDRFSGSKSGTSATLGITGLQTGDEADYYCGTWDSSLSAPWVFGGGTKVTVLGAAAGAGGDYKDDDDKGAAAHHHHHH
B9: NYA-1163 (scFv)
scFv: GEVQLVESGGGVVQPGRSLTPSCSASGFSIRSYDIHWVRLAPGKGLEWVATISYDGSQKYFADSVKGRFTIFRDESENMVYLQMSGLRVEDTAVYHCARGSSGHYEAFDIWGQGTMVTVSSGGGGSGGGGSGGGGSQSVLTQPPSVSAAPGQKVTISCSGSSSNIGNNYVSWYQQLPGTAPKLLIYDNNKRPSGIPDRFSGSKSGTSATLGITGLQTGDEADYYCGTWDSSLSAPWVFGGGTKVTVLGAAAGAGGDYKDDDDKGAAAHHHHHH
B10: NYA-2035 (scFv)
scFv: GEVQLVESGGGVVQPGRSLTPSCSASGFSIRSYDIHWVRLAPGKGLEWVATISYDGSQKYFADSVKGRFTIFRDESENMVYLQMSGLRVEDTAVYHCARGSSGHYEAFDIWGQGTMVTVSSGGGGSGGGGSGGGGSQSVLTQPPSVSAAPGQKVTISCSGSSSNIGNWKVSWYQQLPGTAPKLLIYDNNKRPSGIPDRFSGSKSGTSATLGITGLQTGDEADYYCGTWDSSLSAPWVFGGGTKVTVLGAAAGAGGDYKDDDDKGAAAHHHHHH
B11: NYA-1143 (scFv)
scFv: GEVQLVESGGGVVQPGRSLTPSCSASGFSIRSYDIHWVRLAPGKGLEWVATISYDGSQKYFADSVKGRFTIFRDESENMVYLQMSGLRVEDTAVYHCARGSSGHYEAFDIWGQGTMVTVSSGGGGSGGGGSGGGGSQSVLTQPPSVSAAPGQKVTISCSGSSSNIGNWYVSWYQQLPGTAPKLLIYDNNKRPSGIPDRFSGSKSGTSATLGITGLQTGDEADYYCGTWDSSLSAPWVFGGGTKVTVLGAAAGAGGDYKDDDDKGAAAHHHHHH
B12: NYA-2048 (scFv)
scFv: GQVQLVESGGGVVQPGRSLRLSCAASGFSIRSYDMHWVRQAPGKGLEWVATISYDGSQKYYADSVKGRFTISRDNSKNTLYLQMSSLRAEDTAVYHCARGSSGHYEAFDIWGQGTLVTVSSGGGGSGGGGSGGGGSQSVLTQPPSASGTPGQRVTISCSGSSSNIGNWYVSWYQQLPGTAPKLLIYDNNKRPSGVPDRFSGSKSGTSASLAISGLQSEDEADYYCGTWDSSLSAPWVFGGGTKLTVLGAAAGAGGDYKDDDDKGAAAHHHHHH
notes: also called NYA-2048 tag adduct

How the values were obtained:
Test in all cases: flow cytometry on peptide-pulsed T2 cells, scFv 100 nM
1F = target: T1, 1F
T1 construct: also called HLA-A2 / point-mutant NY-ESO peptide 1F complex on T2 cells

7F = target: T2, 7F
T2 construct: also called HLA-A2 / point-mutant NY-ESO peptide 7F complex on T2 cells

6L = target: T3, 6L
T3 construct: also called HLA-A2 / point-mutant NY-ESO peptide 6L complex on T2 cells

9A = target: T4, 9A
T4 construct: also called HLA-A2 / point-mutant NY-ESO peptide 9A complex on T2 cells

3A = target: T5, 3A
T5 construct: also called HLA-A2 / point-mutant NY-ESO peptide 3A complex on T2 cells

4A = target: T6, 4A
T6 construct: also called HLA-A2 / point-mutant NY-ESO peptide 4A complex on T2 cells

8A = target: T7, 8A
T7 construct: also called HLA-A2 / point-mutant NY-ESO peptide 8A complex on T2 cells

2M = target: T8, 2M
T8 construct: also called HLA-A2 / point-mutant NY-ESO peptide 2M complex on T2 cells

5A = target: T9, 5A
T9 construct: also called HLA-A2 / point-mutant NY-ESO peptide 5A complex on T2 cells

Binder	standardized gMFI (1F)	standardized gMFI (7F)	standardized gMFI (6L)	standardized gMFI (9A)	standardized gMFI (3A)	standardized gMFI (4A)	standardized gMFI (8A)	standardized gMFI (2M)	standardized gMFI (5A)
B1	0.68	3.62	13.4	15.6	10.9	3.21	10	13.5	
B2	0.53	1.99	8.8	9.98	7.46		7.35	8.8	
B3	0.48		7.07	9.54	6.09	0.86	6.61	7.34	
B4	3.56	5.07	3.78	7.99	4.75		3.69	5.66	0.65
B5	0.6	0.97	7.97	6.56	7.88	0.83	6.67	7.72	0.78
B6		6.08	9.36	11.2	8	6.63	11.9	9.49	
B7	2.72		12.9	14.5	10.3	7.19	9.69	13.2	
B8	0.72	4.72	7.51	10.8	4.92	2.48	5.4	6.74	
B9	0.53			4.01		0.57	6		0.62
B10	0.6	5.83	8.95	11.5	5.81		6.41	8.8	
B11			12.9	15.1	10.2		8.74	11.9	3.15
B12	0.51		6.14	7.75	4.2	0.63	4.11	5.36	0.67
